Results from article PMC9256654, “Mechanistic basis for maintenance of CHG DNA methylation in plants” (Nature Communications, 2022).

How the values were obtained:
[1] = biological target: Zea mays ZMET2 (residues 130-912), core fragment harboring the CD, BAH and MTase domains (Zea mays) (UniProt Q9AXT8)
[2] = biological target: A. thaliana CMT3 (residues 42-839) (A. thaliana) (UniProt Q94F88)
[3] = biological target: Zea mays ZMET2 (residues 130-912), core fragment harboring the CD, BAH and MTase domains (Zea mays) (UniProt Q9AXT8); remark: listed apart in the source

Zea mays ZMET2 (residues 130-912), core fragment harboring the CD, BAH and MTase domains (Zea mays), sequence (Q9AXT8 130-912): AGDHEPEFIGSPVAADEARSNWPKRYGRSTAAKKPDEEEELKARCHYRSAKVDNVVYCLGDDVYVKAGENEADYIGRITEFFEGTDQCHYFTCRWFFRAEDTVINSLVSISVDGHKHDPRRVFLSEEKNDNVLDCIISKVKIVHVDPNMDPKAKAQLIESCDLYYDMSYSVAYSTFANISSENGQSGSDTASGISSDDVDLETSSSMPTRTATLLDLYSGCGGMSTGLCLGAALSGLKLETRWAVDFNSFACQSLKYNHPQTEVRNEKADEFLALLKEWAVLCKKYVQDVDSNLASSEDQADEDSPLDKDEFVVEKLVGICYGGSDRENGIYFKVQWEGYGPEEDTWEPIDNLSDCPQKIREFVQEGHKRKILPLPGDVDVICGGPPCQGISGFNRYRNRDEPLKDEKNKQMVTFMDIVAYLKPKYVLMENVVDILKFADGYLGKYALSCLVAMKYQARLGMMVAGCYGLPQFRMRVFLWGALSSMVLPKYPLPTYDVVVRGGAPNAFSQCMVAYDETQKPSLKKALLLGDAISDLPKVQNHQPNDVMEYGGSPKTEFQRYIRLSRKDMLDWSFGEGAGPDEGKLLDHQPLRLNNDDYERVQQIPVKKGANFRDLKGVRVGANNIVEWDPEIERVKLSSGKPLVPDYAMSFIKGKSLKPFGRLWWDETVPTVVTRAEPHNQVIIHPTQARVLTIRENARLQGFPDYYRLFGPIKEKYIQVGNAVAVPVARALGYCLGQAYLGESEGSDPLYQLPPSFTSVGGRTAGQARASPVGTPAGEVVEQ
A. thaliana CMT3 (residues 42-839) (A. thaliana), sequence (Q94F88 42-839): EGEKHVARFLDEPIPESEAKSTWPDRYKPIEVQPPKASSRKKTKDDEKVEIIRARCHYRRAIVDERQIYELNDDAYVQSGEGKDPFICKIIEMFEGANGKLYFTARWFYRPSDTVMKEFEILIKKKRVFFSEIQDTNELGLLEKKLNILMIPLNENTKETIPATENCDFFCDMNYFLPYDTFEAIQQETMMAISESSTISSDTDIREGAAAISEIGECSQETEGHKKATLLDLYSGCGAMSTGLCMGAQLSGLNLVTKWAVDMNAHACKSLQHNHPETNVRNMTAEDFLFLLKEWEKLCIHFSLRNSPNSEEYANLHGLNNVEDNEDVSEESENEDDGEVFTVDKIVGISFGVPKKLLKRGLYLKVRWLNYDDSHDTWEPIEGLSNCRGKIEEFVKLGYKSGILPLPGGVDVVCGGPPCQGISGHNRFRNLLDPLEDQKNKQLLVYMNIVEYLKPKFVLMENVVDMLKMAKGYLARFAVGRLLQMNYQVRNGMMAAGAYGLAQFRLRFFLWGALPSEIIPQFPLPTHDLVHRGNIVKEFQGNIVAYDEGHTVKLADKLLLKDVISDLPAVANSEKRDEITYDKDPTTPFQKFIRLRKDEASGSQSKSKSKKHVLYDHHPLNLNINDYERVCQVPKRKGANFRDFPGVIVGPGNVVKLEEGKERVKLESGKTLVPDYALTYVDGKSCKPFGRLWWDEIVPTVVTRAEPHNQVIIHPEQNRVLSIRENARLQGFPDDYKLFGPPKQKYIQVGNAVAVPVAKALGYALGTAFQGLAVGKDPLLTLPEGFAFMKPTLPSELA

Substance | in vitro DNA methylation activity of ZMET2 on hmCHG DNA, fold stimulation by the peptide [1] | in vitro DNA methylation activity of ZMET2 on unmodified CAG DNA, fold stimulation by the peptide [1] | in vitro DNA methylation activity of CMT3, reduction of the enzymatic stimulation against H3 (1–32)K9me2 [2] | in vitro DNA methylation activity of ZMET2, reduction of the enzymatic stimulation against H3 (1–32)K9me2 [3]
histone H3K9me2 peptide encompassing residues 1-32, followed by a C-terminal tyrosine (from UniProt P68431 2-33) | 15 fold | 6 fold | – | –
histone H3K9me2K18ac peptide residues 1-32, followed by a C-terminal tyrosine (from UniProt P68431 2-33) | – | – | > 3 fold | > 3 fold
